Here are results for one variant from IntAct's records for PubMed 19696741.

B1: Carboxypeptidase Y (Saccharomyces cerevisiae), P00729 (parent)
chain: MKAFTSLLCGLGLSTTLAKAISLQRPLGLDKDVLLQAAEKFGLDLDLDHLLKELDSNVLDAWAQIEHLYPNQVMSLETSTKPKFPEAIKTKKDWDFVVKNDAIENYQLRVNKIKDPKILGIDPNVTQYTGYLDVEDEDKHFFFWTFESRNDPAKDPVILWLNGGPGCSSLTGLFFELGPSSIGPDLKPIGNPYSWNSNATVIFLDQPVNVGFSYSGSSGVSNTVAAGKDVYNFLELFFDQFPEYVNKGQDFHIAGESYAGHYIPVFASEILSHKDRNFNLTSVLIGNGLTDPLTQYNYYEPMACGEGGEPSVLPSEECSAMEDSLERCLGLIESCYDSQSVWSCVPATIYCNNAQLAPYQRTGRNVYDIRKDCEGGNLCYPTLQDIDDYLNQDYVKEAVGAEVDHYESCNFDINRNFLFAGDWMKPYHTAVTDLLNQDLPILVYAGDKDFICNWLGNKAWTDVLPWKYDEEFASQKVRNWTASITDEVAGEVKSYKHFTYLRVFNGGHMVPFDVPENALSMVNEWIHGGFSL
partner: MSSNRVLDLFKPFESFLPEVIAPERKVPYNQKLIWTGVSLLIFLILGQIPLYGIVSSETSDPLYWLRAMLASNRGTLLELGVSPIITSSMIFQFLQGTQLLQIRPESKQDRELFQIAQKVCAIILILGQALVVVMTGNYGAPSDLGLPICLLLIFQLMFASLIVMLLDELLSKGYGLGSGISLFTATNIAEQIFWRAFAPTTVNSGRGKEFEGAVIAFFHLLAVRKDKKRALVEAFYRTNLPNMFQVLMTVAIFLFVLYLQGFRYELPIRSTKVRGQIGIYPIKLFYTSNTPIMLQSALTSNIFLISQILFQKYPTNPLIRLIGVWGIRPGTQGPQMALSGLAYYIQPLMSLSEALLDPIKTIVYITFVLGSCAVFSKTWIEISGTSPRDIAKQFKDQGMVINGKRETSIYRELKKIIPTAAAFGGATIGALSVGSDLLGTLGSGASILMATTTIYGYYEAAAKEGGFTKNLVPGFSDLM

In this experiment the parent is B1. As to conditions: with sc61a_yeast SEC61, P32915.
In the case of MKAFTSLLCGLGLSTTLAKAISLQRPLGLDKDVLLQAAEKFGLDLDLDHLLKELDSNVLDAWAQIEHLYPNQVMSLETSTKPKFPEAIKTKKDWDFVVKNDAIENYQLRVNKIKDPKILGIDPNVTQYTGYLDVEDEDKHFFFWTFESRNDPAKDPVILWLNGGPGCSSLTGLFFELGPSSIGPDLKPIGNPYSWNSNATVIFLDQPVNVGFSYSGSSGVSNTVAAGKDVYNFLELFFDQFPEYVNKGQDFHIARESYAGHYIPVFASEILSHKDRNFNLTSVLIGNGLTDPLTQYNYYEPMACGEGGEPSVLPSEECSAMEDSLERCLGLIESCYDSQSVWSCVPATIYCNNAQLAPYQRTGRNVYDIRKDCEGGNLCYPTLQDIDDYLNQDYVKEAVGAEVDHYESCNFDINRNFLFAGDWMKPYHTAVTDLLNQDLPILVYAGDKDFICNWLGNKAWTDVLPWKYDEEFASQKVRNWTASITDEVAGEVKSYKHFTYLRVFNGGHMVPFDVPENALSMVNEWIHGGFSL [G255R], the “effect of a mutation on the interaction” value was “increasing interaction”.
